# Paper PMC7782738
# B1: α-scorpion toxin LqhIII from the deathstalker scorpion Leiurus quinquestriatus hebraeus (natural protein)
# chain: VRDGYIAQPENCVYHCFPGSSGCDTLCKEKGGTSGHCGFKVGHGLACWCNALPDNVGIIVEGEKCHS
# Legend:
# [1] = molecular target: fully functional core construct of the rat cardiac sodium channel NaV1.5 (rNaV1.5C) (rat) (UniProt P15389); test: cryo-EM structure; purified rNaV1.5C (~1 mg/ml) mixed with 50 uM LqhIII and purified FGF12b and calmodulin, re-run on Superose-6 in 25 mM imidazole pH 6.0, 150 mM NaCl, 0.006% GDN; peak concentrated to 5 mg/ml; no membrane potential
# Chain of UniProt P15389 (P15389 whole entry): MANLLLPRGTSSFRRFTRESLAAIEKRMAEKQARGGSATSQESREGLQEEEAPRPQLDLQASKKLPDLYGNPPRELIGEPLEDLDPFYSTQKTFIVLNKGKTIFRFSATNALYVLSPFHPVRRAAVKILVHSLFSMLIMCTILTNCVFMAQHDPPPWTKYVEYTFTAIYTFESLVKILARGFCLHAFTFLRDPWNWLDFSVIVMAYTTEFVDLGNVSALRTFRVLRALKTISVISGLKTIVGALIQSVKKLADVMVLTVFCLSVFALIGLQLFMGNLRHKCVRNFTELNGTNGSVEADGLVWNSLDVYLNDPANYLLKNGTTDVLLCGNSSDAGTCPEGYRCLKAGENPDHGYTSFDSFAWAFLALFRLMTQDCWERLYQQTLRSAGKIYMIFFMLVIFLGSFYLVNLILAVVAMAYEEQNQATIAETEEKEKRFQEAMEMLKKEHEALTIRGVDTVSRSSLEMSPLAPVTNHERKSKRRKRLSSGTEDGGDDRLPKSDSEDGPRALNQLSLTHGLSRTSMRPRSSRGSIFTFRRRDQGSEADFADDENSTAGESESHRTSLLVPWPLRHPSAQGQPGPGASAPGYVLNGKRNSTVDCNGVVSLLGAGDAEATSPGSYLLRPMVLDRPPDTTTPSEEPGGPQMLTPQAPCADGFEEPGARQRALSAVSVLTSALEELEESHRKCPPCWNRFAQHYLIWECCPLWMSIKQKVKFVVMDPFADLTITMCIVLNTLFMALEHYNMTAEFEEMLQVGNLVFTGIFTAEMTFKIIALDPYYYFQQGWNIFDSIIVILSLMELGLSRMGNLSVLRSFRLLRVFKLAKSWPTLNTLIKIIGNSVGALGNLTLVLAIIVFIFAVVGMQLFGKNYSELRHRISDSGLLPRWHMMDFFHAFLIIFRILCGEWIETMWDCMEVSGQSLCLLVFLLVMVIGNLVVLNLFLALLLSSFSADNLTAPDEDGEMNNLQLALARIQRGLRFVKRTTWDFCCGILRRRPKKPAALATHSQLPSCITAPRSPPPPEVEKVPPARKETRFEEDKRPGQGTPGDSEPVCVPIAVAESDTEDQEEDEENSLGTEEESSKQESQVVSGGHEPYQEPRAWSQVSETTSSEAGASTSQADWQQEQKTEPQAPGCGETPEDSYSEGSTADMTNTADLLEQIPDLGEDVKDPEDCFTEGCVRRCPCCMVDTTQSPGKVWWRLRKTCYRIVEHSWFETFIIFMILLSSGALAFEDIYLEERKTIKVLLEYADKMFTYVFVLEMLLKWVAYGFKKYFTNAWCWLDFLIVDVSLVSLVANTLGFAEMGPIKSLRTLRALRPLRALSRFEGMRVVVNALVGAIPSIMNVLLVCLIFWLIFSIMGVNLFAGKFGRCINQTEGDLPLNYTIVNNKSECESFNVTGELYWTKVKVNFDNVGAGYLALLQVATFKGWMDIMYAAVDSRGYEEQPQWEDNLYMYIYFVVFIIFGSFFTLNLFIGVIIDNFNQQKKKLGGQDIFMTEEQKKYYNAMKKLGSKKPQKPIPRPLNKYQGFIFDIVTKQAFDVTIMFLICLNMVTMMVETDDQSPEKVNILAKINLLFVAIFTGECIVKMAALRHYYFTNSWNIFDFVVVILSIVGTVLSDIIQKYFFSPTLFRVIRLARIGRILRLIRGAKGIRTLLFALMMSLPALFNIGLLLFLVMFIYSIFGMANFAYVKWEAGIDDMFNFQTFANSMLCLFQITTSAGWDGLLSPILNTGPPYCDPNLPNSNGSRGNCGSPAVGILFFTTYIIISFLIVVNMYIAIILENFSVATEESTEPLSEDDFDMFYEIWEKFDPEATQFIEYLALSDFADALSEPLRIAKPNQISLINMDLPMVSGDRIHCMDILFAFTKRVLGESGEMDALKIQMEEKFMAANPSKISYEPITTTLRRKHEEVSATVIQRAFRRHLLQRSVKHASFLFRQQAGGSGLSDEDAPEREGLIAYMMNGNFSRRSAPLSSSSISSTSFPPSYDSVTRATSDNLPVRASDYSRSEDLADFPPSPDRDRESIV
# [2] = molecular target: fully functional core construct of the rat cardiac sodium channel NaV1.5 (rNaV1.5C) (rat) (UniProt P15389)
binder,measurement,setting,value
B1,stoichiometry N,[1],1
same,"inhibition of fast inactivation: sodium current remaining 6 ms after the depolarizing pulse, whole-cell patch clamp of HEK293S GnTI- cells expressing rNaV1.5C, 1-1000 nM LqhIII",[2],11.4 nM
same,"time course of the block of fast inactivation on perfusion of 100 nM LqhIII, cells held at -120 mV, single exponential fit",[2],11.3 min
